Experimental data published in patent US20230255948A1.

Tests used:
[1] = molecular target: α9β1 integrin on mouse RAW macrophage cells (mouse) (UniProt B8JK39); assay: cell-based or functional assay
[2] = molecular target: α4β1 integrin on mouse B16 melanoma cells and mouse RAW macrophage cells (mouse) (UniProt Q00651); assay: cell-based or functional assay
α4β1 integrin on mouse B16 melanoma cells and mouse RAW macrophage cells (mouse), sequence (Q00651 41-1039, chain 1 of 2): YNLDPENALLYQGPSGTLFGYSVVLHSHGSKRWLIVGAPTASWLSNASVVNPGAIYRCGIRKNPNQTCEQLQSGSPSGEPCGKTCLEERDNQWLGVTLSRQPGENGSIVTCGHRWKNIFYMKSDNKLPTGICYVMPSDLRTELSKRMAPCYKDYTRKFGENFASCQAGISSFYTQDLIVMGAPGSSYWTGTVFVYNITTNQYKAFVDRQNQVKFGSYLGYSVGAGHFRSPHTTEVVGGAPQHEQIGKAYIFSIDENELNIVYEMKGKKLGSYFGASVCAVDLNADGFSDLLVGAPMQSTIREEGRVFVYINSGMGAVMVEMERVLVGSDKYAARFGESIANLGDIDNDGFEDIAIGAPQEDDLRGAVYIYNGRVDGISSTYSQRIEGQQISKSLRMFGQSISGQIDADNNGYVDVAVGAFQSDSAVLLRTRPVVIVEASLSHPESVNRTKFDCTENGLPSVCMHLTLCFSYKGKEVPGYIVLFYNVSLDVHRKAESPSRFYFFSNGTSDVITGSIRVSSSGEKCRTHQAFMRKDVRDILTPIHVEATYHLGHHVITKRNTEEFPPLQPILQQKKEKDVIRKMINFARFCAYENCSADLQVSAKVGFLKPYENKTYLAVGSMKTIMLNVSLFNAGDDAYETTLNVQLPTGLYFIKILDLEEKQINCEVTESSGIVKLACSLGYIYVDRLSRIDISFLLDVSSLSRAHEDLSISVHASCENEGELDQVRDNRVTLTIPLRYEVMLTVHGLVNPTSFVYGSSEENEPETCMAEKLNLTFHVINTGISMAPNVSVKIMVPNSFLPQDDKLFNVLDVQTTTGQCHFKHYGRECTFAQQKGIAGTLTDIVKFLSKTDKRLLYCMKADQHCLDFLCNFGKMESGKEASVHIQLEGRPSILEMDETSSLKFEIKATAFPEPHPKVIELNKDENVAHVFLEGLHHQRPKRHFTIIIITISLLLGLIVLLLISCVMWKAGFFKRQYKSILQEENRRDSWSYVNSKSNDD
α4β1 integrin on mouse B16 melanoma cells and mouse RAW macrophage cells (mouse), sequence (P09055 21-798, chain 2 of 2, further chain): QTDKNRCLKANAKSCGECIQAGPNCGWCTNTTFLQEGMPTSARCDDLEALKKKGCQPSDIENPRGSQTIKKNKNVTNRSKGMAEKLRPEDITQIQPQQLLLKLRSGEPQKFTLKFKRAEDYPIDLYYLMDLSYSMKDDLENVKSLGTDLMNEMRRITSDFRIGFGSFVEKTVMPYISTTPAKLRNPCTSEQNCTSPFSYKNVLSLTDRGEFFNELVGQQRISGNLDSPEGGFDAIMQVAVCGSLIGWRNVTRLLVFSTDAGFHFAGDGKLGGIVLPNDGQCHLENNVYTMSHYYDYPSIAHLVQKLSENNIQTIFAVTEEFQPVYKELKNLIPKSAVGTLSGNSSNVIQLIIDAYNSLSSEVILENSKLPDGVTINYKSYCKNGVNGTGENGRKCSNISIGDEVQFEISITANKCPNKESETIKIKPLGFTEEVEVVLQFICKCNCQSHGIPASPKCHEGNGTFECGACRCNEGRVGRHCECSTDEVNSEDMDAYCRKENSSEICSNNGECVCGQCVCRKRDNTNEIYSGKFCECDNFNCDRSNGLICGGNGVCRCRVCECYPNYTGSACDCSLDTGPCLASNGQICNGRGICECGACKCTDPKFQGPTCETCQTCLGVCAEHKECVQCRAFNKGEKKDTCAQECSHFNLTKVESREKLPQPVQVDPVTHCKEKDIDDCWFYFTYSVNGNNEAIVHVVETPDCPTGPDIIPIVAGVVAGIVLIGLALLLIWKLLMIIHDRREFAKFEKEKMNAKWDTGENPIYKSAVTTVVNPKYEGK

α9β1 integrin on mouse RAW macrophage cells (mouse), sequence (B8JK39 29-1036, chain 1 of 2): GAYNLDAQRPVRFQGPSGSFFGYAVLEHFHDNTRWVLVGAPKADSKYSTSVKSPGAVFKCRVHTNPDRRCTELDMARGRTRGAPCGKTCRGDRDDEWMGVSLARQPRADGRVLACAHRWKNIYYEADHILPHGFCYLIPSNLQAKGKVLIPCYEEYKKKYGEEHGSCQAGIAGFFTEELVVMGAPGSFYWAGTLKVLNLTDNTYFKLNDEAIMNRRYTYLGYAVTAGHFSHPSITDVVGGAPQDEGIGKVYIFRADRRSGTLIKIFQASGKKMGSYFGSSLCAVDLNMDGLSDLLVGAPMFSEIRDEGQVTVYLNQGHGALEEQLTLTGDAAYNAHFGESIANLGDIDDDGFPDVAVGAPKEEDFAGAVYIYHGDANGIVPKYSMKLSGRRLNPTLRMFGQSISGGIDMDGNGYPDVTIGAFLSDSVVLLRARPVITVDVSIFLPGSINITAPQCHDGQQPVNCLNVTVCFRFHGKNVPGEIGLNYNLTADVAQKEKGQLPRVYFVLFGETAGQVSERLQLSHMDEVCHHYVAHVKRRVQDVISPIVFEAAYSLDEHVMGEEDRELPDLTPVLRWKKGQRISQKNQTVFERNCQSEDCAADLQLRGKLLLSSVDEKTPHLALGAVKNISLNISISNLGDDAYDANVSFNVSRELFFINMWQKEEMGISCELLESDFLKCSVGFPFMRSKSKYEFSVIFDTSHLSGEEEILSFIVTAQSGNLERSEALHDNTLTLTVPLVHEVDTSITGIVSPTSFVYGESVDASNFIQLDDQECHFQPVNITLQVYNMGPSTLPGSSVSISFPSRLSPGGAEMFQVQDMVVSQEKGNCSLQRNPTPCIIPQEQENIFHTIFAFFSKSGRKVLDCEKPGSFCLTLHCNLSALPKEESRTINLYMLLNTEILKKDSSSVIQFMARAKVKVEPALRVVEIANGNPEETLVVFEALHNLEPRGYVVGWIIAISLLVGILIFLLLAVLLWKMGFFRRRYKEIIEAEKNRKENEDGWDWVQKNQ
α9β1 integrin on mouse RAW macrophage cells (mouse), sequence (P09055 21-798, chain 2 of 2, further chain): as the sequence (P09055 21-798, chain 2 of 2, further chain) above

- PGE2 secretion in RAW cells [1]: 4.2 fold
- PGE2 secretion in RAW cells [2]: 4.2 fold
Substance: OPN-RRAA (OPN-R in which the RGD sequence has been mutated to RAA) (ligand)
